The record followed here is USRE49026.

The experiment concerns the target recombinant human IL-23R/Fc chimera (human) (UniProt Q5VWK5). The experiment in a line: ELISA of conditioned media on coated IL-23R-Fc, anti-p40 detection. On the technique in general: In an ELISA, binding on a coated surface is turned into a signal by an enzyme label.

recombinant human IL-23R/Fc chimera (human), sequence (Q5VWK5 24-353 limits assumed, change not shown): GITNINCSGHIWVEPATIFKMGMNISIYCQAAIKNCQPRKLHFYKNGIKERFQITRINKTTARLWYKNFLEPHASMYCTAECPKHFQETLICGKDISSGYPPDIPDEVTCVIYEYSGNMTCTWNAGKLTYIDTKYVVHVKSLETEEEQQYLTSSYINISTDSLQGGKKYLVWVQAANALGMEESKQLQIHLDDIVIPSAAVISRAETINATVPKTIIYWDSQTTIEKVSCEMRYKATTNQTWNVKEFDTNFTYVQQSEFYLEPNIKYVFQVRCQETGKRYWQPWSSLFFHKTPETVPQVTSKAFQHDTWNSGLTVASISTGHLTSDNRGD

Consider “W2 IL-23 cytokine (p19 W2 to G mutant + p40) (from UniProt Q9NPF7 20-189; P29460 23-328) (ligand)”, for which the reduction of binding compared to WT came to 50%.
